From US20060153851A1, “CLASP proteins” (ARBOR VITA CORPORATION, published 2006)

How the values were obtained:
GST-NeDLG fusion protein [1] = biological target: T1, GST-NeDLG fusion protein (human, UniProt Q92796); test: biotinylated peptide titration on plate-bound GST fusion (FIG. 9B)
T1 sequence: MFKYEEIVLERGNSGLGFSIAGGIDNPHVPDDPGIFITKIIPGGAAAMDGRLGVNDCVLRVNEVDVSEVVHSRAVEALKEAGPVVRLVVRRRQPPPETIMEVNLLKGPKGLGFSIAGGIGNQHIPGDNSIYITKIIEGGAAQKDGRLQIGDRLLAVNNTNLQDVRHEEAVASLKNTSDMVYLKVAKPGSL
Protocol: 20 μM biotinylated synthetic peptide corresponding to the C-terminal 20 amino acids of CLASP-2 was reacted with the indicated plate bound GST fusion proteins (none=no GST fusion protein coated onto plate). Error bars indicate standard deviation of duplicate measurements. B. Affinity of CLASP 2-PDZ interactions. Varying concentrations of biotinylated CLASP-2 peptide were reacted with plate bound GST alone, GST-DLG1, GST-NeDLG, and GST-PSD95 fusion proteins. The binding to GST alone (<0.1 OD units) was subtracted from the binding to the fusion proteins and the remaining signal was divided by the signal observed upon addition of 30 μM CLASP-2 peptide to each PDZ domain-containing protein (0.4-1.0 OD units) and plotted. […] Data are means of duplicate data points, with standard errors between duplicate data points <10%. C. Inhibition of CLASP-2-PDZ binding. 5 μM biotinylated synthetic peptide corresponding to the C-terminal 20 amino acids of CLASP-2 was reacted with the indicated, plate-bound PDZ domain-containing GST fusion proteins in the presence or absence of 100 μM competitor peptide. CLASP-2 Inhibitor refers to a synthetic peptide composed of the eight C-terminal amino acids of CLASP-2. […]
The binding of a biotinylated carboxyl-terminal peptide to a GST-PDZ fusion protein is measured as follows: [0470] […]

GST-NeDLG fusion protein [2] = biological target: T1, GST-NeDLG fusion protein; test: varying concentrations of biotinylated peptide on plate-bound GST fusion, streptavidin-HRP, fit to a saturation binding curve (FIG. 9B)
Protocol: (§1) 20 μM biotinylated synthetic peptide corresponding to the C-terminal 20 amino acids of CLASP-2 was reacted with the indicated plate bound GST fusion proteins (none=no GST fusion protein coated onto plate). Error bars indicate standard deviation of duplicate measurements. B. Affinity of CLASP 2-PDZ interactions. Varying concentrations of biotinylated CLASP-2 peptide were reacted with plate bound GST alone, GST-DLG1, GST-NeDLG, and GST-PSD95 fusion proteins. The binding to GST alone (<0.1 OD units) was subtracted from the binding to the fusion proteins and the remaining signal was divided by the signal observed upon addition of 30 μM CLASP-2 peptide to each PDZ domain-containing protein (0.4-1.0 OD units) and plotted. […] Data are means of duplicate data points, with standard errors between duplicate data points <10%. C. Inhibition of CLASP-2-PDZ binding. 5 μM biotinylated synthetic peptide corresponding to the C-terminal 20 amino acids of CLASP-2 was reacted with the indicated, plate-bound PDZ domain-containing GST fusion proteins in the presence or absence of 100 μM competitor peptide. CLASP-2 Inhibitor refers to a synthetic peptide composed of the eight C-terminal amino acids of CLASP-2. KV1.3 Inhibitor refers to a synthetic peptide composed of the 19 C-terminal amino acids of KV1.3, a lymphocyte potassium channel. The amino acid sequence of the KV1.3 inhibitor is […]. D. Inhibition of KV1.3-PDZ binding. 5 μM biotinylated synthetic peptide corresponding to the C-terminal 19 amino acids of KV1.3 was reacted with the indicated, plate-bound PDZ-domain containing GST fusion proteins in the presence or absence of 100 μM CLASP-2 Inhibitor (see FIG. 9C legend).
(§2) The binding of a biotinylated carboxyl-terminal peptide to a GST-PDZ fusion protein is measured as follows: [0470] (1) GST fusion protein containing one or more PDZ domain(s) is coated onto a protein-binding surface. […]

GST-DLG1 fusion protein = GST-DLG1 fusion protein (Homo sapiens (Human), UniProt Q12959); test: as above
Protocol: as §1, §2

GST-PSD95 fusion protein = GST-PSD95 fusion protein (Homo sapiens (Human), UniProt P78352); test: as above
Protocol: as §1, §2

B1: biotinylated synthetic peptide corresponding to the C-terminal 20 amino acids of CLASP-2 (peptide)
peptide: VLHHHQNPEFYDEIKIELPTQLHEKHHLLLTFFHVSCDNSSKGSTKKRDVVETQVGYSWLPLLKDGRVVTSEQHIPVSANLPSGYLGYQELGMGRHYGPEIKWVDGGKPLLKISTHLVSTVYTQDQHLHNFFQYCQKTESGAQALGNELVKYLKSLHAMEGHVMIAFLPTILNQLFRVLTRATQEEVAVNVTRVIIHVVAQCHEEGLESHLRSYVKYAYKAEPYVASEYKTVHEELTKSMTTILKPSADFLTSNKLLRYSWFFFDVLIKSMAQHLIENSKVKLLRNQRFPASYHHAAETVVNMLMPHITQKFGDNPEASKNANHSLAVFIKRCFTFMDRGFVFKQINNYISCFAPGDPKTLFEYKFEFLRVVCNHEHYIPLNLPMPFGKGRIQRYQDLQLDYSLTDEFCRNHFLVGLLLREVGTALQEFREVRLIAISVLKNLLIKHSFDDRYASRSHQARIATLYLPLFGLLIENVQRINVRDVSPFPVNAGMTVKDESLALPAVNPLVTPQKGSTLDNSLHKDLLGAISGIASPYTTSTPNINSVRNADSRGSLISTDSGNSLPERNSEKSNSLDKHQQSSTLGNSVVRCDKLDQSEIKSLLMCFLYILKSMSDDALFTYWNKASTSELMDFFTISEVCLHQFQYMGKRYIARNQEGLGPIVHDRKSQTLPVSRNRTGMMHARLQQLGSLDNSLTFNHSYGHSDADVLHQSLLEANIATEVCLTALDTLSLFTLAFKNQLLADHGHNPLMKKVFDVYLCFLQKHQSETALKNVFTALRSLIYKFPSTFYEGRADMCAALCYEILKCCNSKLSSIRTEASQLLYFLMRNNFDYTGKKSFVRTHLQVIISVSQLIADVVGIGETRFQQSLSIINNCANSDRLIKHTSFSSDVKDLTKRIRTVLMATAQMKEHENDPEMLVDLQYSLAKSYASTPELRKTWLDSMARIHVKNGDLSEAAMCYVHVTALVAEYLTRKGVFRQGCTAFRVITPNIDEEASMMEDVGMQDVHFNEDVLMELLEQCADGLWKAERYELIADIYKLIIPIYEKRRDFFEDEDGKEYIYKEPKLTPLSEISQRLLKLYSDKFGSENVKMIQDSGKVNPKDLDSKYAYIQVTHVIPFFDEKELQERKTEFERSHNIRRFMFEMPFTQTGKRQGGVEEQCKRRTILTAIHCFPYVKKRIPVMYQHHTDLNPIEVAIDEMSKKVAELRQLCSSAEVDMIKLQLKLQGSVSVQVNAGPLAYARAFLDDTNTKRYPDNKVKLLKEVFRQFVEACGQALAVNERLIKEDQLEYQEEMKANYREMAKELSEIMHEQICPLEEKTSVLPNSLHIFNAISGTPTSTMVHGMTSSSSVV
modifications: biotin at the amino-terminus
GST-NeDLG fusion protein [1]
  Ka: ≥ 10000 M⁻¹
GST-NeDLG fusion protein [2]
  Kd: 7.5 µM
GST-DLG1 fusion protein
  Kd: 21 µM
GST-PSD95 fusion protein
  Kd: 45 µM
